From patent US20110092419A1 come the findings set out here.

The target in the experiment is purified recombinant human insulin receptor (either with or without exon 11) (human) (UniProt P06213). The experiment can be described thus: SPA competition with A14Tyr[125I]-human insulin on purified recombinant human insulin receptor.
As for “A8H, A14E, A22K, B25H, B29R, desB30 human insulin (from UniProt P01308 90-110; P01308 25-53) (ligand)”, the Relative insulin receptor binding affinity (%) (% of the affinity of human insulin) came to 67.1.

Take “A8H, A14E, B10E, B25H, B26G, B27G,B28G, desB30 human insulin (from UniProt P01308 90-110; P01308 25-53) (ligand)”: the Relative insulin receptor binding affinity (%) (% of the affinity of human insulin) came out at 136.

Turning to “A8H, A14E, B16H, B25H, desB30 human insulin (from UniProt P01308 90-110; P01308 25-53) (ligand)”, the Relative insulin receptor binding affinity (%) (% of the affinity of human insulin) is 24.

As to “A8H, A14E, B22K, B25H, B29R, desB30 human insulin (from UniProt P01308 90-110; P01308 25-53) (ligand)”, the Relative insulin receptor binding affinity (%) (% of the affinity of human insulin) is 81.1.

Take “A8H, A14H, B16H, B25H, desB30 human insulin (from UniProt P01308 90-110; P01308 25-53) (ligand)”: the Relative insulin receptor binding affinity (%) (% of the affinity of human insulin) is 27.

Consider “A14E, A15E, B25H, desB30 human insulin (from UniProt P01308 90-110; P01308 25-53) (ligand)”, for which the Relative insulin receptor binding affinity (%) (% of the affinity of human insulin) worked out at 23.

As to “A14E, A21G, B25H, desB30 human insulin (from UniProt P01308 90-110; P01308 25-53) (ligand)”, the Relative insulin receptor binding affinity (%) (% of the affinity of human insulin) was 13.1.

On to “A14E, A22K, B16E, B25H, B29R, desB30 human insulin (from UniProt P01308 90-110; P01308 25-53) (ligand)”, for which the Relative insulin receptor binding affinity (%) (% of the affinity of human insulin) came out at 0.9.

As for “A14E, A22K, B16H, B25H, B29R, desB30 human insulin (from UniProt P01308 90-110; P01308 25-53) (ligand)”, the Relative insulin receptor binding affinity (%) (% of the affinity of human insulin) came to 7.61.

On to “A14E, A22K, B25H, B26G, B27G, B28G, B29R, desB30 human insulin (from UniProt P01308 90-110; P01308 25-53) (ligand)”, for which the Relative insulin receptor binding affinity (%) (% of the affinity of human insulin) came to 59.2.

“A14E, A22K, B25H, B27E, B29R, desB30 human insulin (from UniProt P01308 90-110; P01308 25-53) (ligand)”: the Relative insulin receptor binding affinity (%) (% of the affinity of human insulin) came out at 24.6.

With “A14E, B10E, B25H, B26G, B27G, B28G, desB30 human insulin (from UniProt P01308 90-110; P01308 25-53) (ligand)”, the Relative insulin receptor binding affinity (%) (% of the affinity of human insulin) came out at 144.

As for “A14E, B16E, B22K, B25H, B29R, desB30 human insulin (from UniProt P01308 90-110; P01308 25-53) (ligand)”, the Relative insulin receptor binding affinity (%) (% of the affinity of human insulin) worked out at 0.59.

Consider “A14E, B16H, B22K, B25H, B29R, desB30 human insulin (from UniProt P01308 90-110; P01308 25-53) (ligand)”, for which the Relative insulin receptor binding affinity (%) (% of the affinity of human insulin) amounted to 4.61.

Consider “A14E, B16H, B25H, desB27, desB28, desB29, desB30 human insulin (from UniProt P01308 90-110; P01308 25-50) (ligand)”, for which the Relative insulin receptor binding affinity (%) (% of the affinity of human insulin) was found to be 1.9.

Take “A14E, B22K, B25H, B26G, B27G, B28G, B29R, desB30 human insulin (from UniProt P01308 90-110; P01308 25-53) (ligand)”: the Relative insulin receptor binding affinity (%) (% of the affinity of human insulin) was 60.7.

For “A14E, B25H, B26E, B27E, desB30 human insulin (from UniProt P01308 90-110; P01308 25-53) (ligand)”, the Relative insulin receptor binding affinity (%) (% of the affinity of human insulin) came to 16.5.

Regarding “A14E, B25H, B26G, B27E, B28G, desB30 human insulin (from UniProt P01308 90-110; P01308 25-53) (ligand)”, the Relative insulin receptor binding affinity (%) (% of the affinity of human insulin) came to 22.7.

For the substance “A14E, B25H, B26G, B27G, B28K, desB30 human insulin (from UniProt P01308 90-110; P01308 25-53) (ligand)”, the Relative insulin receptor binding affinity (%) (% of the affinity of human insulin) is 69.5.

In the case of “A14E, B25H, B27G, B28G, desB30 human insulin (from UniProt P01308 90-110; P01308 25-53) (ligand)”, the Relative insulin receptor binding affinity (%) (% of the affinity of human insulin) came to 16.5.

On to “A14E, B25H, B28G, desB30 human insulin (from UniProt P01308 90-110; P01308 25-53) (ligand)”, for which the Relative insulin receptor binding affinity (%) (% of the affinity of human insulin) came out at 18.4.

Take “A14E, B25H, B29R, desB30 human insulin (from UniProt P01308 90-110; P01308 25-53) (ligand)”: the Relative insulin receptor binding affinity (%) (% of the affinity of human insulin) worked out at 26.1.

In the case of “A14E, B27K, desB28, desB29, desB30 human insulin (from UniProt P01308 90-110; P01308 25-51) (ligand)”, the Relative insulin receptor binding affinity (%) (% of the affinity of human insulin) came out at 79.

With “A14H, B16H, B25H, desB27, desB28, desB29, desB30 Human insulin (from UniProt P01308 90-110; P01308 25-50) (ligand)”, the Relative insulin receptor binding affinity (%) (% of the affinity of human insulin) is 2.

For “A14K, B25H, B29R human insulin (from UniProt P01308 90-110; P01308 25-54) (ligand)”, the Relative insulin receptor binding affinity (%) (% of the affinity of human insulin) is 11.

With “A14P, B25H, desB30 human insulin (from UniProt P01308 90-110; P01308 25-53) (ligand)”, the Relative insulin receptor binding affinity (%) (% of the affinity of human insulin) is 14.
